Experiments:
[1] = target: the molecule itself; experiment: SEC; analytical SEC, Superdex 200 10/300, PBS + 0.1 M NaCl + 0.05% NaN3, flow 0.5 ml/min, protein at 100 μg/mL; apparent molecular weight from a calibration curve; monomer to dimer
[2] = target: T1, 4Ig-B7-H3-mEGFP (human), Q5ZPR3; experiment: FRET or BRET; homo-FRET fluorescence lifetime imaging (FRET-FLIM, TCSPC) of mEGFP fusions in fixed, transiently transfected HeLa CD276-/- KO cells; bi-exponential fit; settings: remark: other sources report otherwise
T1 chain: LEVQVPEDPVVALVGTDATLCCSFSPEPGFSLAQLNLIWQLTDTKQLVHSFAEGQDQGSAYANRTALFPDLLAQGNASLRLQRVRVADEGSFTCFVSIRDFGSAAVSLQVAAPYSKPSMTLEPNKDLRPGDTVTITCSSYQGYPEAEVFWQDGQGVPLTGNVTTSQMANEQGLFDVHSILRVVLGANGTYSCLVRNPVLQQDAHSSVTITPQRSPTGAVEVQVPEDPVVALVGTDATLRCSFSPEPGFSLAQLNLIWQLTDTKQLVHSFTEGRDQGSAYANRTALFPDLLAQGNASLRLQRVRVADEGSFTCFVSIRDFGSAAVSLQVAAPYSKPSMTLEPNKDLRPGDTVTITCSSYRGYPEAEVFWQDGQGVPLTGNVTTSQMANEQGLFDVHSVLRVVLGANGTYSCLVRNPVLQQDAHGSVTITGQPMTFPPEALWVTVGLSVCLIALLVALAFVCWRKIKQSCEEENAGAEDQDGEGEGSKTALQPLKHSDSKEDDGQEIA

B1: murine 2Ig-B7-H3 extracellular domain (amino acids: Val29 – Phe244), recombinant (domain or fragment, UniProt Q8VE98 29-244, looked up)
chain: VEVQVSEDPVVALVDTDATLRCSFSPEPGFSLAQLNLIWQLTDTKQLVHSFTEGRDQGSAYSNRTALFPDLLVQGNASLRLQRVRVTDEGSYTCFVSIQDFDSAAVSLQVAAPYSKPSMTLEPNKDLRPGNMVTITCSSYQGYPEAEVFWKDGQGVPLTGNVTTSQMANERGLFDVHSVLRVVLGANGTYSCLVRNPVLQQDAHGSVTITGQPLTF
notes: B7-H3 (CD276), murine, 2Ig isoform, extracellular domain, residues Val29 – Phe244; also called murine B7-H3; source: bought: R&D Systems (functionally active recombinant protein)
B1 was tested, and the “stoichiometry N” value [1] was 2.

B2: 4Ig-B7-H3-mEGFP, Q5ZPR3 29-534 (natural protein)
chain: LEVQVPEDPVVALVGTDATLCCSFSPEPGFSLAQLNLIWQLTDTKQLVHSFAEGQDQGSAYANRTALFPDLLAQGNASLRLQRVRVADEGSFTCFVSIRDFGSAAVSLQVAAPYSKPSMTLEPNKDLRPGDTVTITCSSYQGYPEAEVFWQDGQGVPLTGNVTTSQMANEQGLFDVHSILRVVLGANGTYSCLVRNPVLQQDAHSSVTITPQRSPTGAVEVQVPEDPVVALVGTDATLRCSFSPEPGFSLAQLNLIWQLTDTKQLVHSFTEGRDQGSAYANRTALFPDLLAQGNASLRLQRVRVADEGSFTCFVSIRDFGSAAVSLQVAAPYSKPSMTLEPNKDLRPGDTVTITCSSYRGYPEAEVFWQDGQGVPLTGNVTTSQMANEQGLFDVHSVLRVVLGANGTYSCLVRNPVLQQDAHGSVTITGQPMTFPPEALWVTVGLSVCLIALLVALAFVCWRKIKQSCEEENAGAEDQDGEGEGSKTALQPLKHSDSKEDDGQEIA
B2 gave a mEGFP fluorescence lifetime, bi-exponential fit, first fraction [2] of 2.57 ns and a mEGFP fluorescence lifetime, bi-exponential fit, second fraction [2] of 1.33 ns.

B3: human 4Ig-B7-H3 extracellular domain (amino acids: Gly27 – Thr461), recombinant (domain or fragment, UniProt Q5ZPR3 27-461, looked up)
chain: GALEVQVPEDPVVALVGTDATLCCSFSPEPGFSLAQLNLIWQLTDTKQLVHSFAEGQDQGSAYANRTALFPDLLAQGNASLRLQRVRVADEGSFTCFVSIRDFGSAAVSLQVAAPYSKPSMTLEPNKDLRPGDTVTITCSSYQGYPEAEVFWQDGQGVPLTGNVTTSQMANEQGLFDVHSILRVVLGANGTYSCLVRNPVLQQDAHSSVTITPQRSPTGAVEVQVPEDPVVALVGTDATLRCSFSPEPGFSLAQLNLIWQLTDTKQLVHSFTEGRDQGSAYANRTALFPDLLAQGNASLRLQRVRVADEGSFTCFVSIRDFGSAAVSLQVAAPYSKPSMTLEPNKDLRPGDTVTITCSSYRGYPEAEVFWQDGQGVPLTGNVTTSQMANEQGLFDVHSVLRVVLGANGTYSCLVRNPVLQQDAHGSVTITGQPMT
notes: B7-H3 (CD276), human, 4Ig isoform, extracellular domain, residues Gly27 – Thr461; commercial proteins of this kind often carry a C-terminal His tag (surmise); also called CD276; source: bought: R&D Systems (functionally active recombinant protein)
With B3 the “stoichiometry N” value [1] was 2.

Source: paper PMC10770396, “Dimerization of the 4Ig isoform of B7-H3 in tumor cells mediates enhanced proliferation and tumorigenic signaling” (Communications Biology, 2024)
